Patent US20120107267A1 (Novo Nordisk, published 2012)

Molecular target: T1, His6-tagged hIL-21Rα extracellular domain (human, UniProt Q9HBE5 20-232)
T1 construct: extracellular domain; also called His6-tagged receptor EC domain; hIL-21Rα chain; not shown: His6 tag
Experiment: ALPHAScreen competition against biotinylated hIL-21 HA

T1 sequence (Q9HBE5 20-232): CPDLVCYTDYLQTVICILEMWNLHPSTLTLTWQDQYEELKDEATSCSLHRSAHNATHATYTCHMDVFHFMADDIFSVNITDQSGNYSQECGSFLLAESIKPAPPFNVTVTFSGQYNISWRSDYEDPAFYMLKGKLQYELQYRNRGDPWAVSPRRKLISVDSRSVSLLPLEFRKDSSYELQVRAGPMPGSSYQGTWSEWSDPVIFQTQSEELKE

B1: hIL-21 HA triple mutant [Q116D, H120D, L123D] (ligand)
chain: QGQDRHMIRMRQLIDIVDQLKNYVNDLVPEFLPAPEDVETNCEWSAFSCFQKAQLKSANTGNNERIINVSIKKLKRKPPSTNAGRRQKHRLTCPSCDSYEKKPPKEFLERFKSLLDKMIDQHDSSRTHGSEDSYPYDVPDYA
notes: Made by site-directed mutagenesis of the pcDNA3.1(+)/hIL-21HA plasmid and expressed in HEK293 cells
B1: binds.
